The source of these data is publication PMC6677818.

In assay [1] the target is calcineurin, WT CN (CNA_(1–370):CNB_(1–170)) (human) (UniProt Q08209). The assay is described as follows: ITC; NHE1 or variants (30–50 µM, syringe) titrated into CN (5–10 µM, cell), 25 °C, 20 mM Tris–HCl pH 7.5, 100 mM NaCl, 1 mM CaCl2, 0.5 mM TCEP; single site-binding model. (In ITC the heat of successive injections is recorded.)
The target is the same in assay [2].
The target in assay [3] is CNAA variant (CNA: H155A/Y159A, CNB), crystallisation construct CNA M1-N370 H155A Y159A, CNB 16–170 (human) (UniProt Q08209).
In assay [4] the target is CNA alone (alpha isoform: H27-D348; two C-terminal Asp residues added) (human) (UniProt Q08209).

UniProt Q08209, sequence (Q08209 other isoform, or with tags, fused parts or gaps): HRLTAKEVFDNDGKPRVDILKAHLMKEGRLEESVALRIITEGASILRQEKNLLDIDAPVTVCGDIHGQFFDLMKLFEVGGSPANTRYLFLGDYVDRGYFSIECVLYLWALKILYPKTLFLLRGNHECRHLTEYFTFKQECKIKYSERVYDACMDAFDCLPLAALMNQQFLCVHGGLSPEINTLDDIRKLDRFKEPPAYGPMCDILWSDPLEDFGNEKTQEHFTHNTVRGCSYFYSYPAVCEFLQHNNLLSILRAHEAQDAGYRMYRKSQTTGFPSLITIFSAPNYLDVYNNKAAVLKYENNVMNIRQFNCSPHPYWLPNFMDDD

As for “NHE1ctΔ92 (PVIVIT) (from UniProt P19634 680-723) (domain or fragment)”, in assay [1], the Kd worked out at 4 nM and the dH was -9 kcal/mol.
With “NHE1ctΔ92 (NHE1 I680-S723) (from UniProt P19634 680-723) (domain or fragment)”, in assay [1], the dissociation constant (Kd) was determined as 21 nM and the dH is -8.5 kcal/mol.
“NHE1ct_(ATAP/AVATAA) (NHE1 I680-Q815, L684A, V686A, P715A, I717A, I719A, D720A) (from UniProt P19634 680-815) (domain or fragment)”: in assay [2], the apparent in vitro dephosphorylation rate k (dephos) of pT779 of ERK2-phosphorylated NHE1ct variant by CN (NMR time course) came out at 0.811 h^-1.
For “NHE1ct WT (human NHE1 I680-Q815) (from UniProt P19634 680-815) (domain or fragment)”, the apparent in vitro dephosphorylation rate k (dephos) of pT779 of ERK2-phosphorylated NHE1ct by CNAA (NMR time course; 20:1 NHE1ct:CN, rate normalized using wt-NHE1ct) in assay [3] worked out at 0.06 h^-1. The apparent in vitro dephosphorylation rate k (dephos) of pT779 of ERK2-phosphorylated NHE1ct by CNA alone (NMR time course) in assay [4] came to 0.347 h^-1. Also, in assay [1], the dissociation constant (Kd) was 59 nM, the dH is -12 kcal/mol and the stoichiometry N stood at 1.
For “NHE1ct P782A (NHE1 I680-Q815) (from UniProt P19634 680-815) (domain or fragment)”, the apparent in vitro dephosphorylation rate k (dephos) of pT779 of ERK2-phosphorylated NHE1ct variant by CN (NMR time course) in assay [2] amounted to 0.028 h^-1. Moreover, in assay [1], the Kd was 48 nM and the dH was -2.8 kcal/mol.
“NHE1ct_(Δ92RARA) (NHE1ctΔ92 698AAA700; R698A, R700A) (from UniProt P19634 680-723) (domain or fragment)”: in assay [1], the Kd came out at 21 nM and the dH was -12.2 kcal/mol.
“NHE1ct_(ATAP) (NHE1 I680-Q815, L684A, V686A) (from UniProt P19634 680-815) (domain or fragment)”: the apparent in vitro dephosphorylation rate k (dephos) of pT779 of ERK2-phosphorylated NHE1ct variant by CN (NMR time course) in assay [2] was found to be 0.642 h^-1. Further, in assay [1], the Kd stood at 4800 nM and the dH was -4.5 kcal/mol.
Consider “PxIxIT peptide (NHE1 E709-P727) (from UniProt P19634 709-727)”, for which, in assay [1], the Kd was 6500 nM and the dH is -2.9 kcal/mol.
Take “NHE1ct_(AVATAA) (NHE1 I680-Q815, P715A, I717A, I719A, D720A) (from UniProt P19634 680-815) (domain or fragment)”: the apparent in vitro dephosphorylation rate k (dephos) of pT779 of ERK2-phosphorylated NHE1ct variant by CN (NMR time course) in assay [2] stood at 0.011 h^-1. In assay [1], the dissociation constant (Kd) was 2400 nM and the dH was -7.6 kcal/mol.

Usually Kd stands for the free concentration of one partner at which half of the binding sites on the other are occupied at equilibrium, for simple one-to-one binding. The term stoichiometry N denotes the number of molecules, sites or subunits per partner or assembly.
